Test results: patent publication US20230189844

How the values were obtained:
[1] = molecular target: T1, Soy Bowman-Birk Inhibitor (UniProt P01055)
T1 sequence: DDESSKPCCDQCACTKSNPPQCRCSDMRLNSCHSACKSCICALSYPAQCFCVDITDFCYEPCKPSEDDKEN

Soybean agglutinin (SBA) = Soybean agglutinin (SBA) (UniProt P05046)
[2] = molecular target: T2, Soy Kunitz Inhibitor (Trypsin Inhibitor from soybean) (UniProt P01070)
T2 sequence: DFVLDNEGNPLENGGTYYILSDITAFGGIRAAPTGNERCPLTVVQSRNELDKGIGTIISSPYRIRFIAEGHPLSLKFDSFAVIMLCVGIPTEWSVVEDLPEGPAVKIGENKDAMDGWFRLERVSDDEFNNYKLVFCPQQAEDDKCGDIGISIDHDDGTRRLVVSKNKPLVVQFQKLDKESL

Chain of Soybean agglutinin (SBA) (P05046 33-285): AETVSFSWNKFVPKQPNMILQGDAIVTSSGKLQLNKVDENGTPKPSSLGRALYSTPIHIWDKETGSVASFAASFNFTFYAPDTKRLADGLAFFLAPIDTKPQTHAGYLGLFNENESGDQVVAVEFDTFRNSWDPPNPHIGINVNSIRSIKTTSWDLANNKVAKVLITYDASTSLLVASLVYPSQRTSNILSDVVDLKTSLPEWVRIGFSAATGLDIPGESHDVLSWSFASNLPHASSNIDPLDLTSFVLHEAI

Substance: Protease derived from Bacillus sp. NCIMB 40484
- % of anti-nutritional factor degraded (SDS-PAGE band disappearance, 2 hours, 37° C., pH 6.5) [1]: 41%
- % of anti-nutritional factor degraded (SDS-PAGE band disappearance, 2 hours, 37° C., pH 6.5) (Soybean agglutinin (SBA)): 21%
- % of anti-nutritional factor degraded (SDS-PAGE band disappearance, 2 hours, 37° C., pH 6.5) [2]: 100%
